Results as given in the RNAGym collection of RNA variant scans (doi:10.7554/elife.80360).

B1: CPEB3 Ribozyme (parent)
chain: GGGGGCCACAGCAGAAGCGUUCACGUCGCGGCCCCUGUCAGAUUCUGGUGAAUCUGCGAAUUCUGCUGU

Variants of: B1
Assay: self-cleavage, relative activity (ratio to wild type); higher = more cleavage; co-transcriptional

Row | Variant | self-cleavage
1 | GGGGGCCACAGCAGAAGCGUUCACGACGCGGCCCCUGUCAGAUUCUGGUGAAUCUGCGAAUUCUGCCGU | 0.868
2 | GGGGGCCACAGCAGAAGCGUUCACGACGCGGCCCCUGUCAGAUUCUGGUGAAUCUGCGAAUUCUGCGGU | 0.858
3 | GGGGGCCACAGCAGAAGCGUUCACGACGCGGCCCCUGUCAGAUUCUGGUGAAGCUGCGAAUUCUGCUGU | 0.647
4 | GGGGGCCACAGCAGAAGCGUUCACGACGCGGCCCCUGUCAGAUUCUGGUGAAACUGCGAAUUCUGCUGU | 0.806
5 | GGGGGCCACAGCAGAAGCGUUCACGACGCGGCCCCUGUCAGAUUCUGGUGAACCUGCGAAUUCUGCUGU | 0.724
6 | GGGGGCCACAGCAGAAGCGUUCACGACGCGGCCCCUGUCAGAUUCUGGUGAAUCUGCGAAGUCUGCUGU | 0.559
7 | GGGGGCCACAGCAGAAGCGUUCACGACGCGGCCCCUGUCAGAUUCUGGUGAAUCUGCGAACUCUGCUGU | 0.403
8 | GGGGGCCACAGCAGAAGCGUUCACGCCGCGGCCCCUGUCAGCUUCUGGUGAAUCUGCGAAUUCUGCUGU | 1.01
9 | GGGGGCCACAGCAGAAGCGUUCACGCCGCGGCCCCUGUCAGUUUCUGGUGAAUCUGCGAAUUCUGCUGU | 0.964
10 | GGGGGCCACAGCAGAAGCGUUCACGCCGCGGCCCCUGUCAGAUUCUGGUGAAUCUGCGAAUUCUGCUGU | 0.993
11 | GGGGGCCACAGCAGAAGCGUUCACGACGCGGCCCCUGUCAGAUUCUGGUGAAUCUGCGAAUUCGGCUGU | 0.719
12 | GGGGGCCACAGCAGAAGCGUUCACGACGCGGCCCCUGUCAGAUUCUGGUGAAUCUGCGAAUUCAGCUGU | 0.628
13 | GGGGGCCACAGCAGAAGCGUUCACGACGCGGCCCCGGUCAGAUUCUGGUGAAUCUGCGAAUUCUGCUGU | 0.145
14 | GGGGGCCACAGCAGAAGCGUUCACGACGCGGCCCCAGUCAGAUUCUGGUGAAUCUGCGAAUUCUGCUGU | 0.15
15 | GGGGGCCACAGCAGAAGCGUUCACGACGCGGCCCCCGUCAGAUUCUGGUGAAUCUGCGAAUUCUGCUGU | 0.403
16 | GGGGGCCACAGCAGAAGCGUUCACGCCGCGGCCCCUGUCAGAUUCUGGUGAAUCUGCGCAUUCUGCUGU | 0.59
17 | GGGGGCCACAGCAGAAGCGUUCACGACGCGGCCCCUGUCAGACUCUGGUGAAUCUGCGAAUUCUGCUGU | 0.802
18 | GGGGGCCACAGCAGAAGCGUUCACGACGCGGCCCCUGUCAGAGUCUGGUGAAUCUGCGAAUUCUGCUGU | 0.707
19 | GGGGGCCACAGCAGAAGCGUUCACGACGCGGCCCCUGUCAGAUUCUGGUGAAUCUGCGAAUUCUGCUGC | 1.04
20 | GGGGGCCACAGCAGAAGCGUUCACGACGCGGCCCCUGUCAGAUUCUGGUGAAUCUGCGAAUUCUGCUGG | 0.977

Row | Variant | self-cleavage
21 | GGGGGCCACAGCAGAAGCGUUCACGCCGCGGCCCCUGUCAGAUUCUGGUGGAUCUGCGAAUUCUGCUGU | 0.928
22 | GGGGGCCACAGCAGAAGCGUUCACGCCGCGGCCCCUGUCAGAUUCUGGUGCAUCUGCGAAUUCUGCUGU | 0.972
23 | GGGGGCCACAGCAGAAGCGUUCACGCCGCGGCCCCUGUCAGAUUCUGGUGUAUCUGCGAAUUCUGCUGU | 0.982
24 | GGGGGCCACAGCAGAAGCGUUCACGACGCGGCCCCUGUCAGAUGCUGGUGAAUCUGCGAAUUCUGCUGU | 0.85
25 | GGGGGCCACAGCAGAAGCGUUCACGACGCGGCCCCUGUCAGAUACUGGUGAAUCUGCGAAUUCUGCUGU | 0.843
26 | GGGGGCCACAGCAGAAGCGUUCACGCCGCGGCCCCUGUCGGAUUCUGGUGAAUCUGCGAAUUCUGCUGU | 0.949
27 | GGGGGCCACAGCAGAAGCGUUCACGCCGCGGCCCCUGUCCGAUUCUGGUGAAUCUGCGAAUUCUGCUGU | 0.455
28 | GGGGGCCACAGCAGAAGCGUUCACGCCGCGGCCCCUGUCUGAUUCUGGUGAAUCUGCGAAUUCUGCUGU | 0.733
29 | GGGGGCCACAGCAGAAGCGUUCACGCCGCGGCCCCUGUCAGAUUCUGGUGAUUCUGCGAAUUCUGCUGU | 0.989
30 | GGGGGCCACAGCAGAAGCGUUCACGCCGCGGCCCCUGUCAGAUUCUGGUGACUCUGCGAAUUCUGCUGU | 0.995
31 | GGGGGCCACAGCAGAAGCGUUCACGCCGCGGCCCCUGUCAGAUUCUGGUGAGUCUGCGAAUUCUGCUGU | 1.01
32 | GGGGGCCACAGCAGAAGCGUUCACGACGCGGCCCCUGUCAGAUUCAGGUGAAUCUGCGAAUUCUGCUGU | 0.906
33 | GGGGGCCACAGCAGAAGCGUUCACGACGCGGCCCCUGUCAGAUUCGGGUGAAUCUGCGAAUUCUGCUGU | 0.895
34 | GGGGGCCACAGCAGAAGCGUUCACGACGCGGCCCCUGUCAGAUUCUGGUGAAUCGGCGAAUUCUGCUGU | 0.44
35 | GGGGGCCACAGCAGAAGCGUUCACGACGCGGCCCCUGUCAGAUUCUGGUGAAUCCGCGAAUUCUGCUGU | 0.712
36 | GGGGGCCACAGCAGAAGCGUUCACGACGCGGCCCCUGUCAGAUUCUGGUGAAUCUGCGAAUACUGCUGU | 0.671
37 | GGGGGCCACAGCAGAAGCGUUCACGACGCGGCCCCUGCCAGAUUCUGGUGAAUCUGCGAAUUCUGCUGU | 0.419
38 | GGGGGCCACAGCAGAAGCGUUCACGACGCGGCCCCUGACAGAUUCUGGUGAAUCUGCGAAUUCUGCUGU | 0.423
39 | GGGGGCCACAGCAGAAGCGUUCACGACGCGGCCCCUGGCAGAUUCUGGUGAAUCUGCGAAUUCUGCUGU | 0.244
